# Patent publication US20230136252A1 (NANJING LEGEND BIOTECH, published 2023)
# T1: human GPC2 on cells (SH-SY5Y, IMR-32, HEK293T/hGPC2) (human, UniProt Q8N158 24-554)
# T1 construct: whole, on cells; GPI-anchored proteoglycan on the cell surface; also called cell-surface human GPC2; GPC2 positive cells
# T1 sequence (looked up): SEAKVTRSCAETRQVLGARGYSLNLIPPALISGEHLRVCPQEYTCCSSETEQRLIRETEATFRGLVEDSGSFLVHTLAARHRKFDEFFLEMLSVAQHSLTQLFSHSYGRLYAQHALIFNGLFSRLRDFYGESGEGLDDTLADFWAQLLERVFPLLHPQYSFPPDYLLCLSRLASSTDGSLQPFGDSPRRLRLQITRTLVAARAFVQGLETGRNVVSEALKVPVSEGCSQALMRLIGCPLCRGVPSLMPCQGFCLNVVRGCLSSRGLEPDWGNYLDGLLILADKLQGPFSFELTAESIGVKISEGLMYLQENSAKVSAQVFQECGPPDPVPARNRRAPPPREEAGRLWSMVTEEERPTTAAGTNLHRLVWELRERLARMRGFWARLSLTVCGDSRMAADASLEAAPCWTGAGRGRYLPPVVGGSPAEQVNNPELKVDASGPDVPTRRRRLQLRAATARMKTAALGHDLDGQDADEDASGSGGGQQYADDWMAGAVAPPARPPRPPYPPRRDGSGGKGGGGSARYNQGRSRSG
# T2: recombinant human GPC2-His protein (human, UniProt Q8N158 24-554, limits assumed)
# T2 construct: Bought protein; The SPR paragraph gives no catalogue number for GPC2-His; also called recombinant Human Glypican 2 Protein; recombinant human GPC2 protein; not shown: His tag
# T2 sequence (looked up): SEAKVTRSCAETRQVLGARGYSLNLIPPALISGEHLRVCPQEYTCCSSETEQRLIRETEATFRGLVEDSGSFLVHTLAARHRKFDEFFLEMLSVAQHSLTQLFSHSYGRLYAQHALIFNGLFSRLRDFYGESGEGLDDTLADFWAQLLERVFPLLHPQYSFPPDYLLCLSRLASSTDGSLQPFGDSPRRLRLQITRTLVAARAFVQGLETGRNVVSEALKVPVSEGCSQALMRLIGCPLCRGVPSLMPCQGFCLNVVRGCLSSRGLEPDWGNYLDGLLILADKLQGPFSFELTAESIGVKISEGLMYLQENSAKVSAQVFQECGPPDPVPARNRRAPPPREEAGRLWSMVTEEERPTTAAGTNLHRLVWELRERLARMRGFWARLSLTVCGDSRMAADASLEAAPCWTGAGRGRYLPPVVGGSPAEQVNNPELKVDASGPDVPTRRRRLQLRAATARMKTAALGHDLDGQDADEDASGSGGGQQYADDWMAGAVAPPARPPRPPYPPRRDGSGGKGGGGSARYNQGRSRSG
# T3: cynomolgus monkey GPC2 on cells (HEK293T/cynoGPC2) (Cynomolgus monkey (Macaca fascicularis), UniProt A0A2K5X5G1 24-551)
# T3 construct: whole, on cells; also called Cynomolgus monkey (Macaca fascicularis) GPC2
# T3 sequence: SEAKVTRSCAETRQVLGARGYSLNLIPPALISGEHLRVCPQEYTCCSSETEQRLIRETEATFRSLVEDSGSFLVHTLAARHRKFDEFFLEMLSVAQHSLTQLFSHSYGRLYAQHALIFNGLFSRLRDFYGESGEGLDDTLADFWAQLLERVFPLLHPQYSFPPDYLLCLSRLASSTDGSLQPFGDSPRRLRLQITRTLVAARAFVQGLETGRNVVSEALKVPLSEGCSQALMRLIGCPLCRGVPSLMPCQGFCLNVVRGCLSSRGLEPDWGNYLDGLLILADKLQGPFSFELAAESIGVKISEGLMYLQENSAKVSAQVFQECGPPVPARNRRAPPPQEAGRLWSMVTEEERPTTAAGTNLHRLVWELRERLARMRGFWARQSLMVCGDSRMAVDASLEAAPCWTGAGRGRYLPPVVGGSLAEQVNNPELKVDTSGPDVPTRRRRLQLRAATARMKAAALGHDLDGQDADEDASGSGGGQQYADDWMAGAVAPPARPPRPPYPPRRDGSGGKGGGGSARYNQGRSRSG
# T4: recombinant human GPC4-Fc (human, UniProt O75487 19-529, limits assumed)
# T4 construct: Bought protein; also called RD System Cat #9195-GP; not shown: Fc
# T4 sequence (looked up): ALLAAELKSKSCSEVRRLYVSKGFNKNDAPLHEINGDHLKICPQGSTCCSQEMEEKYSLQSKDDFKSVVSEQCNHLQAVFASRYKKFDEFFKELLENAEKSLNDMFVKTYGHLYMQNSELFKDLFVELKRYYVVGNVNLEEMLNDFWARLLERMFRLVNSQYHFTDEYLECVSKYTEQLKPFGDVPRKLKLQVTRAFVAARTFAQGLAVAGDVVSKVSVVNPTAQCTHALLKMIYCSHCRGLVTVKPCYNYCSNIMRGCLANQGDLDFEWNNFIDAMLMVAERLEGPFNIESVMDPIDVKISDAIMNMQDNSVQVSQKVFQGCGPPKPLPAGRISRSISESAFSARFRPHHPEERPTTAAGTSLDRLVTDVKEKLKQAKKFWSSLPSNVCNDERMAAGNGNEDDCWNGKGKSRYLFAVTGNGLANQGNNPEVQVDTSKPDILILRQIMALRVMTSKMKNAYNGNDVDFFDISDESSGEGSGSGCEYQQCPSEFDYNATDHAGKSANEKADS
# Tests used:
# [1] = molecular target: T1, human GPC2 on cells (SH-SY5Y, IMR-32, …); assay: flow cytometry on SH-SY5Y cells, VHH-His detected with anti-His tag antibody (iFluor 647), median fluorescence intensity, four-parameter fit
# Method: (§1) Binding affinities of humanized VHH proteins AS70950VH6, AS71529VH6, AS72669VH6 and AS71529VH6-AS70950VH6 anti-GPC2 VHH-HIS proteins to human GPC2 expressing cells (SH-SY5Y and HEK293T/hGPC2) and cynomolgus monkey GPC2 expressing cell (HEK293T/cynoGPC2) were determined using flow cytometry. Briefly, serially diluted anti-GPC2 VHH-HIS proteins were incubated with 2×10⁵ target cells at 4° C. for 30 mins. After washing, cells were further labelled with THE™ His tag Antibody (iFluor 647) (Genescript, #A01802) at 4° C. for 30 mins. Fluorescence intensity was measured by flow cytometry. A four parameters variable slope curve was fitted to each group using GraphPad Prism for Windows Version 6.02. As shown in FIG. 4A-FIG. 4C, exemplary AS70950VH6, AS71529VH6, AS72669VH6 and AS71529VH6-AS70950VH6 specifically bind to SH-SY5Y, HEK293T/hGPC2 and HEK293T/cynoGPC2 in a dose-dependent manner.
# [2] = molecular target: T2, recombinant human GPC2-His protein; assay: SPR, Biacore T200, GPC2-His amine-coupled to CM5 chip, VHH-hIgG1Fc as analyte, 1:1 model
# Method: Each of the exemplary anti-GPC2 VHH sequences was cloned into a vector comprising a human IgG1Fc fragment (hlgG1Fc) sequence to facilitate recombinant expression of anti-GPC2 VHH-hlgG1Fc. Recombinant proteins were obtained and purified for SPR assays. The affinity of each anti-GPC2 VHH-hIgG1Fc for GPC2 was determined by SPR using a BIACORE® T200 analytical system (GE Healthcare). Briefly, recombinant human GPC2-His protein was covalently coupled to a CM5(s) sensor chip using an amine coupling kit. Exemplary VHH-hIgG1Fc proteins were serially diluted in running buffer (10 mM HEPES, 150 mM NaCl, 3 mM EDTA, 0.05% Tween-20, pH 7.4) and injected over the chip cell at a flowrate of 100 μL/min for 100 seconds followed by buffer-only injection for 300 seconds to allow for antibody dissociation. The dissociation […] (KD) were determined using the BIACORE® T200 evaluation software version 3.0 (Langmuir binding, local fit, 1:1 binding model).
# [3] = molecular target: T1, human GPC2 on cells (SH-SY5Y, IMR-32, …); assay: flow cytometry on HEK293T/hGPC2 cells, VHH-His detected with anti-His tag antibody (iFluor 647), median fluorescence intensity, four-parameter fit
# Method: as §1
# [4] = molecular target: T3, cynomolgus monkey GPC2 on cells …; assay: flow cytometry on HEK293T/cynoGPC2 cells, VHH-His detected with anti-His tag antibody (iFluor 647), median fluorescence intensity, four-parameter fit
# Method: as §1
# [5] = molecular target: T4, recombinant human GPC4-Fc; assay: ELISA on GPC4 coated plate; by paragraph 266 the VHH-His form with anti-His tag secondary was used on GPC4-Fc; the sheet's title prints the hIgG1Fc form and its legend 'rhGPC4-his'
# Method: To evaluate the specificity of humanized anti-GPC2 VHH5 to recombinant human GPC2 protein, an ELISA-based binding assay was conducted to determine the differential target proteins binding of anti-GPC2 VHH5. Briefly, microplates were coated with 2 μg/mL recombinant human GPC1-His (RD System, Cat #4519-GP), GPC2-His (RD System, Cat #2304-GP), GPC3-His (ACRO, Cat #GP3-H5223), GPC4-Fc (RD System, Cat #9195-GP), GPC5-His (RD System, Cat #2607-G5/CF), GPC6-His (RD System, Cat #2845-GP) or recombinant mouse GPC2-His (RD System, Cat #2355-GP) proteins. Recombinant human protein coated plates were blocked with skim milk. Serially diluted humanized VHH-hIgG1Fc recombinant antibodies were added to each well of the plates and incubated at 4° C. for 1.5 h. Samples were further labelled with HRP-conjugated goat anti human IgG (H+L) secondary antibody (Genescript, Cat #A00166-1) and signal was developed with 3,3′,5,5′-Tetramethylbenzidine (TMB) substrate according to manufacturer's instruction. For the GPC4, VHH-His recombinant antibodies and anti-His tag secondary antibody (Genescript, Cat #A00612) were added to the GPC4-Fc coated plates instead. Optic density at 450 nm was measured by plate reader.
EC50 (read off the curve) [1] [nM],Kd [2] [nM],koff [2] [s⁻¹],kon [2] [M⁻¹ s⁻¹],EC50 (read off the curve) [3] [nM],EC50 (read off the curve) [4] [nM],binding result [5],Binder
~100,–,–,–,–,–,–,AS71529VH6 anti-GPC2 VHH-His protein (VHH) VHH: EVQLVESGGGLVQPGGSLRLSCAVSEYRYSSRYCMGWFRQAPGKGREGVAAIDSNGSADYVDSVKGRFTISKDNSKNTLYLQMNSLRAEDTAMYYCAADHLAYDCYSGATSVFRYWGQGTLVTVSS
–,5.1,0.0044,850000,–,–,–,"AS71529VH6-hIgG1Fc (Fc fusion, also called anti-GPC2 VHH-hIgG1Fc; not shown: human IgG1 Fc fragment (hIgG1Fc)) EVQLVESGGGLVQPGGSLRLSCAVSEYRYSSRYCMGWFRQAPGKGREGVAAIDSNGSADYVDSVKGRFTISKDNSKNTLYLQMNSLRAEDTAMYYCAADHLAYDCYSGATSVFRYWGQGTLVTVSS"
–,0.19,6.1e-05,320000,–,–,–,"AS71529VH6-AS70950VH6-hIgG1Fc (Fc fusion, Two different anti-GPC2 VHH domains in tandem, fused to a human IgG1Fc fragment; also called tandem anti-GPC2 VHH-hIgG1Fc; not shown: human IgG1 Fc fragment (hIgG1Fc)) EVQLVESGGGLVQPGGSLRLSCAVSEYRYSSRYCMGWFRQAPGKGREGVAAIDSNGSADYVDSVKGRFTISKDNSKNTLYLQMNSLRAEDTAMYYCAADHLAYDCYSGATSVFRYWGQGTLVTVSSGGGGSGGGGSGGGGSEVQLVESGGGLVQPGGSLRLSCAISEFTYKNTCVGWFRQAPGKGREGVAAIDSDGNTNYVDSVKGRFTISQDNSKNTVYLQMNSLRAEDTAMYYCAAGAYCGRLLLWIGNYAYWGQGTLVTVSS"
~3,–,–,–,~5,~5,–,"AS71529VH6-AS70950VH6 anti-GPC2 VHH-His protein (VHH, Tandem of two different anti-GPC2 VHH domains) EVQLVESGGGLVQPGGSLRLSCAVSEYRYSSRYCMGWFRQAPGKGREGVAAIDSNGSADYVDSVKGRFTISKDNSKNTLYLQMNSLRAEDTAMYYCAADHLAYDCYSGATSVFRYWGQGTLVTVSSGGGGSGGGGSGGGGSEVQLVESGGGLVQPGGSLRLSCAISEFTYKNTCVGWFRQAPGKGREGVAAIDSDGNTNYVDSVKGRFTISQDNSKNTVYLQMNSLRAEDTAMYYCAAGAYCGRLLLWIGNYAYWGQGTLVTVSSHHHHHH"
~2,–,–,–,~4,~5,–,AS72669VH6 anti-GPC2 VHH-His protein (VHH) VHH: QVQLVESGGGVVQPGGSLRLSCAASRFTYSSYCMGWIRQAPGKGREGVAIFYTGGGRTYYADSVKGRFTISQDNSKNTLYLQMNSLRAEDTAVYYCVAGFYCSGGYWEGDFGYWGQGTLVTVSS
–,0.15,7.7e-05,520000,–,–,–,"AS72669VH6-hIgG1Fc (Fc fusion, also called anti-GPC2 VHH-hIgG1Fc; not shown: human IgG1 Fc fragment (hIgG1Fc)) QVQLVESGGGVVQPGGSLRLSCAASRFTYSSYCMGWIRQAPGKGREGVAIFYTGGGRTYYADSVKGRFTISQDNSKNTLYLQMNSLRAEDTAVYYCVAGFYCSGGYWEGDFGYWGQGTLVTVSS"
~3,–,–,–,~2,~5,no binding (tested: about 300 nM),AS70950VH6 anti-GPC2 VHH-His protein (VHH) VHH: EVQLVESGGGLVQPGGSLRLSCAISEFTYKNTCVGWFRQAPGKGREGVAAIDSDGNTNYVDSVKGRFTISQDNSKNTVYLQMNSLRAEDTAMYYCAAGAYCGRLLLWIGNYAYWGQGTLVTVSS
–,–,–,–,–,–,no binding (tested: about 300 nM),"AS79236VH6 VHH-His recombinant antibody (VHH, the result sentence still names the hIgG1Fc form) VHH: EVQLVESGGGLVQPGGSLRLSCAVSGYTYSSYCMAWFRQAPGKGLEGVASIDAGGRTTYVDSVKGRFTISKDNAKNSLYLQMNSLRAEDTAMYYCAVDVRTRCGGTWDGEAVYFPYWGQGTLVTVSS"
–,–,–,–,–,–,no binding (tested: about 300 nM),"AS78117VH4 VHH-His recombinant antibody (VHH, the result sentence still names the hIgG1Fc form) VHH: EVQLVESGGGLVQPGGSLRLSCIVSRYTYATYSMAWFRQAPGKGLEGVSGLDSVGATGYAESVKGRFTISRDNSKNTLYLQMNSLRAEDTAVYYCVVDPASAKVTYGSWSTPSYAYWGQGTLVTVSS"
